Results from patent US20200071404A1 (Astellas, published 2020).

T1: human CD73 protein (R&D Systems, Inc., 5795) (human, UniProt P21589 27-549)
T1 sequence (looked up): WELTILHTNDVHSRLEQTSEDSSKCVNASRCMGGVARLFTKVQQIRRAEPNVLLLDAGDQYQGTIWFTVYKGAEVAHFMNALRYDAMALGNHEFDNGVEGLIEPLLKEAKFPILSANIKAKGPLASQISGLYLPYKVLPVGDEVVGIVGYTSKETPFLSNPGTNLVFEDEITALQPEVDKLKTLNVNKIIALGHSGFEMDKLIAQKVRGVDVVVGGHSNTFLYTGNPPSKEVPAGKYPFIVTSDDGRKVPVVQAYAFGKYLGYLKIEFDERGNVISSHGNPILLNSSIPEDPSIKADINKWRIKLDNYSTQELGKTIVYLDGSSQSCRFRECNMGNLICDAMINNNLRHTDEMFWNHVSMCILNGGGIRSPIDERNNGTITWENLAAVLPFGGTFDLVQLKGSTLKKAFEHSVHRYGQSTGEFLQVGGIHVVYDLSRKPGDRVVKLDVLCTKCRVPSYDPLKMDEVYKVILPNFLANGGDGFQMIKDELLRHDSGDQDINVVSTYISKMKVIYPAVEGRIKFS

T2: human CD73 expressed on cells (cancer cell line NCI-H1373 endogenously expressing human CD73); human T cell … (human, UniProt P21589 27-549)
T2 sequence (looked up): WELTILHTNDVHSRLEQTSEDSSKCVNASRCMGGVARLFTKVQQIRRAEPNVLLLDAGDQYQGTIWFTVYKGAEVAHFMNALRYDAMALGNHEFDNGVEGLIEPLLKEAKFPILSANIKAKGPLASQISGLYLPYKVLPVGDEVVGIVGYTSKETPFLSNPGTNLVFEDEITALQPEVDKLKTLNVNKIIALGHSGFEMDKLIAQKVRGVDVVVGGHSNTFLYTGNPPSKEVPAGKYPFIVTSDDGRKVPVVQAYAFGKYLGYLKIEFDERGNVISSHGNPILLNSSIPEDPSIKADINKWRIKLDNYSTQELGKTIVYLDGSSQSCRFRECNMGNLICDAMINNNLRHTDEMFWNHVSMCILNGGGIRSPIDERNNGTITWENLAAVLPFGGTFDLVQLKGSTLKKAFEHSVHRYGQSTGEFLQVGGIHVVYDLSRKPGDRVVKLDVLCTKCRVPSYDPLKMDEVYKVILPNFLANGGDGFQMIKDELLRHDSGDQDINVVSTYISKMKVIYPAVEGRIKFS

T3: human CD73 protein (BPS Bioscience Inc., 71184) (human, UniProt P21589 27-547, limits assumed)
T3 sequence (looked up): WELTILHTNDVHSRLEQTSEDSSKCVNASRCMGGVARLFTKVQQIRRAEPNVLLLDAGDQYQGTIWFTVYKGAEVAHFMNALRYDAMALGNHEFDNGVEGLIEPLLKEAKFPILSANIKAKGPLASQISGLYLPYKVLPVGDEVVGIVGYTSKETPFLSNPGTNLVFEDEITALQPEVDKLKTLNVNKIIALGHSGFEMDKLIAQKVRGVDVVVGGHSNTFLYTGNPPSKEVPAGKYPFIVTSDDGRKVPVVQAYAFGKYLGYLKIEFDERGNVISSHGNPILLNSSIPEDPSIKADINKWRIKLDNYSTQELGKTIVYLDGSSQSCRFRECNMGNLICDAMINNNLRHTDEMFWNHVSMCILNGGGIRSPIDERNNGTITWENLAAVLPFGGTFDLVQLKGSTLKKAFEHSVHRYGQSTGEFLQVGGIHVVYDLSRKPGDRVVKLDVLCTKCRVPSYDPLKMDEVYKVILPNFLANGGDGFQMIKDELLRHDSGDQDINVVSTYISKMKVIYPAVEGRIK


Legend:
[1] = molecular target: T1, human CD73 protein (R&D Systems, Inc., …); test: cell-based or functional assay
[2] = molecular target: T2, human CD73 expressed on cells (cancer …); test: cell-based or functional assay
[3] = molecular target: T2, human CD73 expressed on cells (cancer …); test: cell-based or functional assay; remark: listed apart in the source
[4] = molecular target: T3, human CD73 protein (BPS Bioscience …); test: ELISA, human CD73 protein immobilised on plate, first run
Method: (§1) In order to evaluate the binding activity of CDS-1, CDS-3, CDS-6, CDS-7, and CDS-8 acquired in Example 1 to human CD73, the ELISA was performed using a human CD73 protein. The human CD73 protein (BPS Bioscience Inc., 71184) diluted in PBS (Life Technologies, Inc.) to have a concentration of 4 μg/mL was added to a MaxiSorp 384-well plate Clear (Thermo Fisher Scientific Inc.) by an amount of 20 μL/well, and then immobilized overnight at a temperature of 4° C. The next day, the resultant was washed with a wash solution (0.05% Tween-20 containing Tris-buffered saline (TBS)) once, Blocking One (Nacalai tesque, Inc.) was added thereto in an amount of 100 μL/well, and the resultant was blocked at room temperature for 30 minutes. The resultant was washed with the wash solution once again, and the purified CDS-1, the purified CDS-3, the purified CDS-6, the purified CDS-7, or the purified CDS-8 prepared in Example 1 was added thereto by an amount of 20 μL/well, respectively. […] The values of absorbance at 450 nm and 540 nm were measured by Infinite M200 PRO (TECAN Inc.), and EC₅₀ values of CDS-1, CDS-3, CDS-6, CDS-7, and CDS-8 with respect to the human CD73 protein were calculated. In calculation of the EC₅₀ values, the ordinate represents a difference in the measurement values of absorbance at 450 nm and 540 nm, and the abscissa represents an antibody concentration value.

[5] = molecular target: T3, human CD73 protein (BPS Bioscience …); test: ELISA, human CD73 protein immobilised on plate, second run
Method: as §1, with “respectively. These purified antibodies were diluted using a reaction buffer obtained by mixing the same amount of PBS and Blocking One, and dilution was performed in 12 steps from 10 μg/mL to 56 pg/mL. The resultant was reacted at room temperature for 1 hour, and then washed three times with a wash solution. 20 μL/well of a human IgG-heavy and light chain cross-adsorbed antibody (Bethyl Laboratories Inc., A80-219P) which had been diluted 4000-fold with a reaction buffer was added thereto, and the resultant was reacted at room temperature for 1 hour. The resultant was washed with a wash solution three times, and 20 μL/well of TMB+substrate-chromogen (DAKO Ltd., 51599) was added thereto.” for “respectively.”

| EC50 (ng/mL), First; inhibition of enzymatic activity of human CD73 protein (adenosine from AMP, LC/MS) [1] | EC50 (ng/mL), Second; inhibition of enzymatic activity of human CD73 protein (adenosine from AMP, LC/MS) [1] | EC50 (ng/mL), First; inhibition of enzymatic activity of human CD73 in NCI-H1373 cells (adenosine from AMP, LC/MS) [2] | EC50 (ng/mL), Second; inhibition of enzymatic activity of human CD73 in NCI-H1373 cells (adenosine from AMP, LC/MS) [2] | EC50 (ng/mL), IFNγ; recovery of AMP-dependently suppressed human T cell functions [3] | EC50 (ng/mL), Proliferation of T cells; recovery of AMP-dependently suppressed human T cell functions [3] | EC50 [4] | EC50 [5] | Binder |
| --- | --- | --- | --- | --- | --- | --- | --- | --- |
| 16.8 ng/mL | 9.2 ng/mL | 785 ng/mL | 579 ng/mL | 5.8 ng/mL | 23.2 ng/mL | 0.0039 µg/mL | 0.0088 µg/mL | anti-human CD73 antibody CDS-1 (antibody, human IgG1, kappa, L234A L235A, also called purified CDS-1) heavy: not shown light: DIQMTQSPSSLSASVGDRVTITCRASQIIGPWLAWYQQKPGKAPKLLIYRASSLESGVPSRFSGSGSGTDFTLTISSLQPEDFATYYCQQYNSYSPWTFGQGTKVEIKRTVAAPSVFIFPPSDEQLKSGTASVVCLLNNFYPREAKVQWKVDNALQSGNSQESVTEQDSKDSTYSLSSTLTLSKADYEKHKVYACEVTHQGLSSPVTKSFNRGEC |
| – | 19.4 ng/mL | – | 455 ng/mL | – | – | – | 0.0209 µg/mL | CDS-3, fused form in which human IL-7 is fused to the C terminal side of the heavy chain of CDS-1 (antibody, human IgG1, kappa, L234A L235A, also called purified CDS-3) heavy: not shown light: DIQMTQSPSSLSASVGDRVTITCRASQIIGPWLAWYQQKPGKAPKLLIYRASSLESGVPSRFSGSGSGTDFTLTISSLQPEDFATYYCQQYNSYSPWTFGQGTKVEIKRTVAAPSVFIFPPSDEQLKSGTASVVCLLNNFYPREAKVQWKVDNALQSGNSQESVTEQDSKDSTYSLSSTLTLSKADYEKHKVYACEVTHQGLSSPVTKSFNRGEC |
| – | 20.4 ng/mL | – | 678 ng/mL | – | – | – | 0.0196 µg/mL | CDS-6, fused form in which human IL-7 variant is fused to the C terminal side of the heavy chain of CDS-1 (antibody, human IgG1, kappa, L234A L235A, also called purified CDS-6) heavy: not shown light: DIQMTQSPSSLSASVGDRVTITCRASQIIGPWLAWYQQKPGKAPKLLIYRASSLESGVPSRFSGSGSGTDFTLTISSLQPEDFATYYCQQYNSYSPWTFGQGTKVEIKRTVAAPSVFIFPPSDEQLKSGTASVVCLLNNFYPREAKVQWKVDNALQSGNSQESVTEQDSKDSTYSLSSTLTLSKADYEKHKVYACEVTHQGLSSPVTKSFNRGEC |
